Assay results from patent US7122343 (WARF WISCONSIN ALUMNI RESEARCH FOUNDATION, dated 2006).

Molecular target: T1, hMre11-hRad50 protein complex (human, UniProt P49959 2-708; Q92878 1-1312)
T1 construct: Endogenous complex from human cells; It also holds p95 and a protein of about 400 kDa; also called hMre11/hRad50 complex; hRad50/hMre11 complex
Assay: co-immunoprecipitation

T1 sequence (P49959 2-708 limits assumed, chain 1 of 2): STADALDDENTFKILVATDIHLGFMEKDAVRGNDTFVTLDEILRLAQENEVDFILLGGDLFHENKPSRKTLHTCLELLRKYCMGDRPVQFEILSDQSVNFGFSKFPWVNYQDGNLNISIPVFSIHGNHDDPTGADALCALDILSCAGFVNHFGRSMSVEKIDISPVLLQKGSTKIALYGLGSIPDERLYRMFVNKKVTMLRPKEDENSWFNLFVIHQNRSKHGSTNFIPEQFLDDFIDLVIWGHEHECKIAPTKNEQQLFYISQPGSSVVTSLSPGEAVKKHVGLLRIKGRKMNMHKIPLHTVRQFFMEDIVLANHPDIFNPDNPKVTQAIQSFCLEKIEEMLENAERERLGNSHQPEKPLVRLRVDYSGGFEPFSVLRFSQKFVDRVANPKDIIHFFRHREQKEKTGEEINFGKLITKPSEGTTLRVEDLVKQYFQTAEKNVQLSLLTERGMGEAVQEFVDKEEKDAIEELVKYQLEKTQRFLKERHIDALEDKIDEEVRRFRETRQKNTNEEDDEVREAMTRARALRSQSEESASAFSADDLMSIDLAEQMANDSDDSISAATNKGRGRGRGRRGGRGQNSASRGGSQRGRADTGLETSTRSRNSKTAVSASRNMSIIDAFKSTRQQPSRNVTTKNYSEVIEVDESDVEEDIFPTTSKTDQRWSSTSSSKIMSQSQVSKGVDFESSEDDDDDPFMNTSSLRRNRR
T1 sequence (Q92878 whole entry, chain 2 of 2): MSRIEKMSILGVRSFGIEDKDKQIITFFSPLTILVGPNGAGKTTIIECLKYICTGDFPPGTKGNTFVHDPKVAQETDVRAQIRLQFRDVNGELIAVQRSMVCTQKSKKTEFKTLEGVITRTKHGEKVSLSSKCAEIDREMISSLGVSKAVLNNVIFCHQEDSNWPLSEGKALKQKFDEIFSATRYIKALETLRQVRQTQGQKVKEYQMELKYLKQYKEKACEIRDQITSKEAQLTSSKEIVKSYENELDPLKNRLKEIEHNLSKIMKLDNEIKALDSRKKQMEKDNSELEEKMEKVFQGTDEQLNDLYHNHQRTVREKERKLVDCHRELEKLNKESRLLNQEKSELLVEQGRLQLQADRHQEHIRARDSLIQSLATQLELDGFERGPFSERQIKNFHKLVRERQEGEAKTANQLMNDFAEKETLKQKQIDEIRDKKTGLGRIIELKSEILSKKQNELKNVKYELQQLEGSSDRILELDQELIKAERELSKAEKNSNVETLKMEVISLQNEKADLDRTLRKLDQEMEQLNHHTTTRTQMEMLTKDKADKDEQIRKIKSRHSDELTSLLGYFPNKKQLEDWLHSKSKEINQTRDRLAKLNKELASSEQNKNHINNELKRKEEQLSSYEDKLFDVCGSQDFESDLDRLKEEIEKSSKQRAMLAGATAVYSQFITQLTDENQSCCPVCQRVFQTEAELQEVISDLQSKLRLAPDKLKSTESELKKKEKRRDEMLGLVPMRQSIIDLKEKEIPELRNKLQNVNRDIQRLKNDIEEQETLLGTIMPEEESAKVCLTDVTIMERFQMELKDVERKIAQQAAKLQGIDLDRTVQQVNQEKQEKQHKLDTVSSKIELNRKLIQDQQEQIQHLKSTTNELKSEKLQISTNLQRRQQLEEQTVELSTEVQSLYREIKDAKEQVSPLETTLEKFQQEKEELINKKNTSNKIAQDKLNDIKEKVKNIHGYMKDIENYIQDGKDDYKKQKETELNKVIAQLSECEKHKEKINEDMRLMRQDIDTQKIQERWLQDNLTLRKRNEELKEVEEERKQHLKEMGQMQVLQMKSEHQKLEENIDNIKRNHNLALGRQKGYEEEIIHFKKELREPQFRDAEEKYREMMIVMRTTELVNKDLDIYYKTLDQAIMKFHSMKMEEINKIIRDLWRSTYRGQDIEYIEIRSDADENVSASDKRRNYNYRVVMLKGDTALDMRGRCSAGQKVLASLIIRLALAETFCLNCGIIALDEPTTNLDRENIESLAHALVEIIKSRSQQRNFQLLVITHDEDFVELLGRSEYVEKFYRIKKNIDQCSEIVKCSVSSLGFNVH

binding result: no binding
B1: hRad51 (other, human, UniProt Q06609 2-339, looked up)
chain: AMQMQLEANADTSVEEESFGPQPISRLEQCGINANDVKKLEEAGFHTVEAVAYAPKKELINIKGISEAKADKILAEAAKLVPMGFTTATEFHQRRSEIIQITTGSKELDKLLQGGIETGSITEMFGEFRTGKTQICHTLAVTCQLPIDRGGGEGKAMYIDTEGTFRPERLLAVAERYGLSGSDVLDNVAYARAFNTDHQTQLLYQASAMMVESRYALLIVDSATALYRTDYSGRGELSARQMHLARFLRMLLRLADEFGVAVVITNQVVAQVDGAAMFAADPKKPIGGNIIAHASTTRLYLRKGRGETRICKIYDSPCLPEAEAMFAINADGVGDAKD
notes: also called human Rad51 homolog
